Consider four molecules from patent US12570994B2, “Plants having increased tolerance to herbicides” (BASF AGRO B.V., priority 2010, dated 2026).

One data set has as its target wild type PPO enzyme (Amaranthus tuberculatus, UniProt Q0NZW9). Nature of the data set: PPO enzyme assay (recombinant), wild type. Type of data set: biochemical. The following applies: 150 μM Protogen.
In data set [1] the test system is Chlamydomonas reinhardtii. Nature of the data set: Selection of mutagenized algae cells on solid medium with herbicide. As to conditions: solid medium containing 1×10^−7 M.
Procedure: Algae cells of Chlamydomonas reinhardtii strains CC-503 and CC-1691 (Duke University, Durham, USA) are propagated in TAP medium (Gorman and Levine (1965) PNAS 54:1665-1669) by constant shaking at 100 rpm, 22° C. and 30 μmol Phot*m^−2*s^−2 light illumination. […] Compound screening is performed at 450 μmol Phot*m^−2*s^−2 illumination.
Sensitive strains of Chlamydomonas reinhardtii or Scenedesmus obliquus are mutated with 0.14 M ethylmethanesulfonate (EMS) for 1 h as described by Loppes (1969, 20 Mol Gen Genet 104:172-177) Tolerant strains are identified by screening of mutagenized cells on solid nutrient solution plates containing benzoxazinone-derivative herbicide of interest at low to lethal concentrations depending on compound activity in specific algae strain.
(A) Mutagenized cells plated on solid medium without a selecting agent. (B) Mutagenized cells plated on solid medium containing 1×10^−7 M benzoxazinone-derivative I.a.35.
Data set [2] is described as follows: Enzyme activity of recombinant wild type and substituted PPO enzymes. As to conditions: fluorescence unit change per minute.

Turning to `C#CCN1C(=O)C(F)(F)Oc2cc(F)c(-n3c(=O)n(C)c(=S)n(C)c3=O)cc21` [benzoxazinone 1.a.35], the IC50 on wild type PPO enzyme came out at 0.12 nM. In addition, the “growth of mutagenized Chlamydomonas reinhardtii cells (colony formation)” value in data set [1] was “susceptible cells do not grow”.

B1: F420M: amino acid substituted PPO enzyme F420M (protein, listed as Amaranthus tuberculatum)
chain: MVIQSITHLSPNLALPSPLSVSTKNYPVAVMGNISEREEPTSAKRVAVVGAGVSGLAAAYKLKSHGLSVTLFEADSRAGGKLKTVKKDGFIWDEGANTMTESEAEVSSLIDDLGLREKQQLPISQNKRYIARDGLPVLLPSNPAALLTSNILSAKSKLQIMLEPFLWRKHNATELSDEHVQESVGEFFERHFGKEFVDYVIDPFVAGTCGGDPQSLSMHHTFPEVWNIEKRFGSVFAGLIQSTLLSKKEKGGENASIKKPRVRGSFSFQGGMQTLVDTMCKQLGEDELKLQCEVLSLSYNQKGIPSLGNWSVSSMSNNTSEDQSYDAVVVTAPIRNVKEMKIMKFGNPFSLDFIPEVTYVPLSVMITAFKKDKVKRPLEGFGVLIPSKEQHNGLKTLGTLFSSMMFPDRAPSDMCLFTTMVGGSRNRKLANASTDELKQIVSSDLQQLLGTEDEPSFVNHLFWSNAFPLYGHNYDSVLRAIDKMEKDLPGFFYAGNHKGGLSVGKAMASGCKAAELVISYLDSHIYVKMDEKTA
As for B1, in data set [2], the “Activity (FU/min)” value amounted to 353 FU/min.

B2: R128A: amino acid substituted PPO enzyme R128A (protein, listed as Amaranthus tuberculatum)
chain: MVIQSITHLSPNLALPSPLSVSTKNYPVAVMGNISEREEPTSAKRVAVVGAGVSGLAAAYKLKSHGLSVTLFEADSRAGGKLKTVKKDGFIWDEGANTMTESEAEVSSLIDDLGLREKQQLPISQNKAYIARDGLPVLLPSNPAALLTSNILSAKSKLQIMLEPFLWRKHNATELSDEHVQESVGEFFERHFGKEFVDYVIDPFVAGTCGGDPQSLSMHHTFPEVWNIEKRFGSVFAGLIQSTLLSKKEKGGENASIKKPRVRGSFSFQGGMQTLVDTMCKQLGEDELKLQCEVLSLSYNQKGIPSLGNWSVSSMSNNTSEDQSYDAVVVTAPIRNVKEMKIMKFGNPFSLDFIPEVTYVPLSVMITAFKKDKVKRPLEGFGVLIPSKEQHNGLKTLGTLFSSMMFPDRAPSDMCLFTTFVGGSRNRKLANASTDELKQIVSSDLQQLLGTEDEPSFVNHLFWSNAFPLYGHNYDSVLRAIDKMEKDLPGFFYAGNHKGGLSVGKAMASGCKAAELVISYLDSHIYVKMDEKTA
Turning to B2, the “Activity (FU/min)” value in data set [2] was found to be 731 FU/min.

B3: F420L: amino acid substituted PPO enzyme F420L (protein, listed as Amaranthus tuberculatum)
chain: MVIQSITHLSPNLALPSPLSVSTKNYPVAVMGNISEREEPTSAKRVAVVGAGVSGLAAAYKLKSHGLSVTLFEADSRAGGKLKTVKKDGFIWDEGANTMTESEAEVSSLIDDLGLREKQQLPISQNKRYIARDGLPVLLPSNPAALLTSNILSAKSKLQIMLEPFLWRKHNATELSDEHVQESVGEFFERHFGKEFVDYVIDPFVAGTCGGDPQSLSMHHTFPEVWNIEKRFGSVFAGLIQSTLLSKKEKGGENASIKKPRVRGSFSFQGGMQTLVDTMCKQLGEDELKLQCEVLSLSYNQKGIPSLGNWSVSSMSNNTSEDQSYDAVVVTAPIRNVKEMKIMKFGNPFSLDFIPEVTYVPLSVMITAFKKDKVKRPLEGFGVLIPSKEQHNGLKTLGTLFSSMMFPDRAPSDMCLFTTLVGGSRNRKLANASTDELKQIVSSDLQQLLGTEDEPSFVNHLFWSNAFPLYGHNYDSVLRAIDKMEKDLPGFFYAGNHKGGLSVGKAMASGCKAAELVISYLDSHIYVKMDEKTA
Regarding B3, in data set [2], the “Activity (FU/min)” value turned out to be 203 FU/min.

By IC50 is commonly meant the concentration that inhibits the measured activity by half.
